The target of one experiment is T1, 2C-121-270aa小肽段 #4 (CVA10病毒 (coxsackievirus A10)).
T1 peptide: SLATGIIARAIADKY
The experiment can be described thus: ELISA on coated synthetic peptides. For orientation: An ELISA detects its analyte on a solid surface through an enzyme-linked reagent.

The target of the next experiment is T2, 2C-121-270aa小肽段 #3 (CVA10病毒 (coxsackievirus A10)).
T2 peptide: PGTGKSLATGIIARA
The experiment can be described thus: ELISA on coated synthetic peptides.

A further experiment addresses T3, 2C-121-270aa肽段 (CVA10病毒 (coxsackievirus A10)).
T3 construct: Expressed in 293T cells from pcDNA6.0 and detected with a Flag antibody, so it carries a Flag tag
The experiment can be described thus: western blot on truncated 2C fragments expressed in 293T cells. For orientation: In western blotting, separated proteins are transferred to a membrane and probed.

For experiment [1], the target named is T4, CVB3病毒2C蛋白 (CVB3, UniProt P03313 1101-1429).
T4 construct: domain: 2C蛋白

Experiment [2] addresses T4, CVB3病毒2C蛋白. The source holds these as a separate data set.
In the next experiment the target is T5, CVA10病毒2C蛋白 (CVA10病毒 (coxsackievirus A10), UniProt Q65900 1112-1440).
T5 construct: In ELISA it was purified 2C protein from prokaryotic expression, coated on the plate; In western blot, immunofluorescence and flow cytometry it was the 2C protein made in CVA10-infected RD cells (intracellular); also called CVA10-2C
As to the kind of experiment: western blot on virus-infected RD cells.

Read-outs that look alike come from different tables or passages of the source.

B1: M3-8单克隆抗体 (M3-8 mAb) (antibody, V domains shown)
VH: QVQLQQSGAELVRPGASVKLSCKALGYTFADNEMHWVKQTPVHGLEWIGGIHPGSGGTAYNQKFKGKATLTADKSSSTAYMELSSLTSEDSAVYYCTRDYYWYDEGFDYWGQGTTLTVSS
VL: DIVMTQTPLSLPVSLGDQASISCRSSQSLVHSNGNTYLHWYLQKPGQSPELLIYKVSNRFSGVPDRFSGSGSGTDFTLKISRVEAEDLGVYFCSQSTHIPLTFGAGTKLELK
notes: also called M3-8细胞上清; 纯化的单克隆抗体(M3-8 mAb)
For B1, the binding result was “binds” with 2C-121-270aa小肽段 #4, “binds” in the experiment with 2C-121-270aa小肽段 #3, “binds” with 2C-121-270aa肽段 and “no binding” with CVB3病毒2C蛋白 [1].

B2: M3-8重组抗体 (antibody, V domains shown)
VH: QVQLQQSGAELVRPGASVKLSCKALGYTFADNEMHWVKQTPVHGLEWIGGIHPGSGGTAYNQKFKGKATLTADKSSSTAYMELSSLTSEDSAVYYCTRDYYWYDEGFDYWGQGTTLTVSS
VL: DIVMTQTPLSLPVSLGDQASISCRSSQSLVHSNGNTYLHWYLQKPGQSPELLIYKVSNRFSGVPDRFSGSGSGTDFTLKISRVEAEDLGVYFCSQSTHIPLTFGAGTKLELK
notes: also called M3-8 mAb重组抗体
For the molecule B2, the binding result was “no binding” with CVB3病毒2C蛋白 [2] and “binds” with CVA10病毒2C蛋白.

Source of the values: CN113150131A (SHANGHAI PUBLIC HEALTH CLINICAL CT, dated 2021).
